Columns and labels:
[1] = biological target: AbdA (Hox);Exd/Hth-HM;Grh (Drosophila melanogaster?;Drosophila …, UniProt P29555;P40427;O46339;P13002 261-590;1-376;127-211;551-1333, ||); experiment: EMSA; EMSA, 20 ul, 30 min, room temperature; 5X buffer as printed: 20% glycerol, 1 mg/ml BSA, 2.5 mM EDTA, '50mM 1M tris' pH 7.5, 50 mM KCl, 5 mM MgCl2, 2.5 mM DTT, 90 ug/ml poly(dI-dC); proteins 100-200 ng; conditions: protein: recombinant;recombinant;recombinant; tags: 6xHis;6xHis;6xHis; copies: 1;1;1;2
AbdA (Hox);Exd/Hth-HM = AbdA (Hox);Exd/Hth-HM (Drosophila melanogaster?;Drosophila …, UniProt P29555;P40427;O46339 261-590;1-376;127-211, |); experiment: as above; conditions: protein: recombinant;recombinant; tags: 6xHis;6xHis; copies: 1;1;1
AbdA (Hox);Grh = AbdA (Hox);Grh (Drosophila melanogaster?;Drosophila …, UniProt P29555;P13002 261-590;551-1333, |); experiment: EMSA; 'compromised'; later 'abolished completely'; EMSA, 20 ul, 30 min, room temperature; 5X buffer as printed: 20% glycerol, 1 mg/ml BSA, 2.5 mM EDTA, '50mM 1M tris' pH 7.5, 50 mM KCl, 5 mM MgCl2, 2.5 mM DTT, 90 ug/ml poly(dI-dC); proteins 100-200 ng; conditions: protein: recombinant;recombinant; tags: 6xHis;6xHis; copies: 1;2
Grh = Grh (UniProt P13002 551-1333); experiment: EMSA; EMSA, 20 ul, 30 min, room temperature; 5X buffer as printed: 20% glycerol, 1 mg/ml BSA, 2.5 mM EDTA, '50mM 1M tris' pH 7.5, 50 mM KCl, 5 mM MgCl2, 2.5 mM DTT, 90 ug/ml poly(dI-dC); proteins 100-200 ng; conditions: protein: recombinant; tags: 6xHis; chain copies: 2
AbdA (Hox) = AbdA (Hox) (UniProt P29555 261-590); experiment: EMSA; no significant binding; EMSA, 20 ul, 30 min, room temperature; 5X buffer as printed: 20% glycerol, 1 mg/ml BSA, 2.5 mM EDTA, '50mM 1M tris' pH 7.5, 50 mM KCl, 5 mM MgCl2, 2.5 mM DTT, 90 ug/ml poly(dI-dC); proteins 100-200 ng; conditions: protein: recombinant; tags: 6xHis
Exd/Hth-HM = biological target: T1, Exd/Hth-HM (UniProt P40427;O46339 1-376;127-211); experiment: as above; conditions: protein: recombinant; tags: 6xHis; copies: 1;1
T1 sequence 1: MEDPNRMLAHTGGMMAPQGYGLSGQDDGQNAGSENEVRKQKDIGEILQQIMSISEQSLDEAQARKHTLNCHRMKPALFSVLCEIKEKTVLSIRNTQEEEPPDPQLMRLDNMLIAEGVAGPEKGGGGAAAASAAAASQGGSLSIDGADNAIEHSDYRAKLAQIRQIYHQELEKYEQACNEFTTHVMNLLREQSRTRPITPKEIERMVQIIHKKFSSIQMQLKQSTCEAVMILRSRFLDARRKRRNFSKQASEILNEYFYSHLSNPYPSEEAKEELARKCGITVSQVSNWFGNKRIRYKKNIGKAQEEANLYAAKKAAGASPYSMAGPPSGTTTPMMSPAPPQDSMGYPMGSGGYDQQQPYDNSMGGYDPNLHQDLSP
T1 sequence 2: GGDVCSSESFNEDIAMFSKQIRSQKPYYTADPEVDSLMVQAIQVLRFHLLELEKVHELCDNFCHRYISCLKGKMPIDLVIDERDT

Chain of AbdA (Hox);Exd/Hth-HM (P29555 261-590, one chain of several): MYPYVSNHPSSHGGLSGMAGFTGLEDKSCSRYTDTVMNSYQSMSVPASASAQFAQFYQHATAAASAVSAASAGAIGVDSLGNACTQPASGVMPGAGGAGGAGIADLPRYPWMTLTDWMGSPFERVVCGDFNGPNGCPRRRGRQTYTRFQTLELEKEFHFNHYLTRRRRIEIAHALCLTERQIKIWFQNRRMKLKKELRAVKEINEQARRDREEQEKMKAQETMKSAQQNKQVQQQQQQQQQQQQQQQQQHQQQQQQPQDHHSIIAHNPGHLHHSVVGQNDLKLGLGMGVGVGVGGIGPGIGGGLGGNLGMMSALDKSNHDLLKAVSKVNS
Chain of AbdA (Hox);Exd/Hth-HM;Grh (P29555 261-590, chain 1 of 4, one chain of several): as the sequence (P29555 261-590, one chain of several) above
Chain of AbdA (Hox);Exd/Hth-HM;Grh (P13002 551-1333, chain 4 of 4, one chain of several): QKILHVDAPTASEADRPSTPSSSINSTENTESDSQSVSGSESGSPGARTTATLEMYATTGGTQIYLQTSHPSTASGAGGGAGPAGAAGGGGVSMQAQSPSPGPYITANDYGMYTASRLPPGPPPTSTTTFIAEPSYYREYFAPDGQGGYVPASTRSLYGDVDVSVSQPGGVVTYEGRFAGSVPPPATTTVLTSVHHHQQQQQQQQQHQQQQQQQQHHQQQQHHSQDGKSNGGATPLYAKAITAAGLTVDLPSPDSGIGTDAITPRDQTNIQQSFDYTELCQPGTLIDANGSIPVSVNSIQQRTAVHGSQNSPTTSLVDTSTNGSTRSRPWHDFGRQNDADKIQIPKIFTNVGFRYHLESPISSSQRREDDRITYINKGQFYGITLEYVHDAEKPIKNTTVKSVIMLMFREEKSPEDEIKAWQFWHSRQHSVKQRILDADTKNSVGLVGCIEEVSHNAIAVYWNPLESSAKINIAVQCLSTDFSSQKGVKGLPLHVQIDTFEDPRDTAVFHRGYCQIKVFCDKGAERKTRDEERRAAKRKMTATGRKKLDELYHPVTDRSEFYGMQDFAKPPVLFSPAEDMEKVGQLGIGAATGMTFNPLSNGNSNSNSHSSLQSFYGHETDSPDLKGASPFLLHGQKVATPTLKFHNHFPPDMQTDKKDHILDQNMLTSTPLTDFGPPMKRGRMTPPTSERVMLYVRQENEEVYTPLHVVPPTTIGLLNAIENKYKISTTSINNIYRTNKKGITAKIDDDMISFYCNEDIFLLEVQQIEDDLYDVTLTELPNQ
Chain of AbdA (Hox);Grh (P29555 261-590, chain 1 of 2): as the sequence (P29555 261-590, one chain of several) above
Chain of AbdA (Hox);Grh (P13002 551-1333, chain 2 of 2): as the sequence (P13002 551-1333, chain 4 of 4, one chain of several) above
Chain of AbdA (Hox) (P29555 261-590): as the sequence (P29555 261-590, one chain of several) above
Chain of Grh (P13002 551-1333): as the sequence (P13002 551-1333, chain 4 of 4, one chain of several) above

B1: motif-30 Grh1 mutant (dsDNA)
DNA 1: GAAACACGATAACCATAACTAATCC
DNA 2: GGATTAGTTATGGTTATCGTGTTTC
B1: no binding [1]; binds (AbdA (Hox);Exd/Hth-HM); no binding (AbdA (Hox);Grh).

B2: motif-24 (dsDNA)
DNA 1: CGCTCATAAAGTTAACCAACGATTTCATTCCTAAAC
DNA 2: GTTTAGGAATGAAATCGTTGGTTAACTTTATGAGCG
B2: binds (AbdA (Hox);Exd/Hth-HM); no binding (Grh); no binding (AbdA (Hox)). B2: no binding (Exd/Hth-HM).
